From publication PMC6751697

Biological target: fluorescein-labeled 16-mer Pogo Ligase peptide (FAM-PL)
Experiment: fluorescence polarisation

recombinant (His)6-PCNA protein (proliferating cell nuclear antigen), sequence (P12004 whole entry): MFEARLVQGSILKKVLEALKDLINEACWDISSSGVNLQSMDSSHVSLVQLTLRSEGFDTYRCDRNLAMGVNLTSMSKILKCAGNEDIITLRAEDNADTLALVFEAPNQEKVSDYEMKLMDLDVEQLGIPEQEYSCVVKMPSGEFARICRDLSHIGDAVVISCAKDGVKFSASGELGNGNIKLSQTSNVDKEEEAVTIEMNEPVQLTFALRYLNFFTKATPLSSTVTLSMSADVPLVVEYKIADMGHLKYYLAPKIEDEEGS

percent of peptide bound (5 nM FAM-PL, 1 uM PCNA): > 80%
Substance: recombinant (His)6-PCNA protein (proliferating cell nuclear antigen) (from UniProt P12004 1-261) (natural protein)
